Test results reported in the RNAGym collection of RNA variant scans (doi:10.1073/pnas.2313332121).

B1: TPR t1 (parent)
chain: GACCAAUCUGCCCUCAGAGCUCGAGAACAUCUUCGGAUGCAGAGGAGGCAGGCUUCGGUGGCGCGAUAGCGCCAACGUCCUCAACCUCCAAUGCAUCCCACCACAUGAUGAUGCCUGAAGAGCCUUGGUUUUUUG

Variants of: B1
Assay: polymerase ribozyme fitness, log enrichment relative to wild type (log ratio); higher = more active; in vitro selection for triplet polymerase activity
Summary of the method: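 The heterodimeric triplet polymerase ribozyme's subunits were each mutagenized into PCR-built libraries and transcribed. Every library was selected once, in triplicate, by annealing with a biotinylated primer, the partner subunit and triplets, incubating frozen at −7 °C, gel-excising extended constructs, capturing on streptavidin beads and running RT-PCR. Input and output libraries were Illumina-sequenced, with genotypes kept only at ≥10 input reads and ≥1 read per output. Fitness, from inverse-variance-weighted replicate averages, is the base-2 logarithm of genotype enrichment over wild-type enrichment.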

Variant	polymerase ribozyme fitness (log ratio)
U9A U14A C64U	0.0854
U9C C70U G93A	0.136
U9A C73A C104U U130G G135C	0.682
C8G U21A U54C C72A	0.0731
U9A C13G A16U A41U	-1.62
U9G A66U C80A C85U	-5.32
C8U G60C	0.253
U9C C53U A83C	0.688
U9A A16U G63A U129C	-1.11
C8U C76G U96A G120U U129C	0.287
U9A A111U	-1.46
U9A U30C G44A G57U G60A	-4.18
C8U G48U A50U G69U C86U U96A	-1.23
C8U C53U	0.0512
C8U G69U C115A	1.59
U9G C31U C94G	-6.42
U9A A91G	-0.793
C8U C20U A37U A43U C72U A74U	-2.39
U9G C12G	0.483
C8U G93U C102U G120C	-1.01
U9G C28U C56A C114U A118U U125G U132A	-5.4

Variant	polymerase ribozyme fitness (log ratio)
C8U G45U U59C U92A	-4.17
U9A G61U C89U U92A U129A	-3.6
C8U C12A G61A C79U	0.0887
U9C C72U	0.343
U9C C72G	0.104
U9G C40U G45U U129C G135A	-3.12
C8U U78G C98U	-0.651
C8G G120A	1.78
C8G G120C	2.34
U9A C79A G93U C101A	-2.59
U9A G110U C124G	-0.636
U9C C56G	0.559
U9C C56A	-0.0544
C8U C11G G93A	-0.424
U9C U92A C114A	-1.69
U9G A37C C40U C72U C123A	-0.161
C8U A18U	-1.03
C8G U38C G42A C56U C124A	-1.34
C8U U9G G57A	-0.23
U9C G51C U81G U92C	-5.89
C8U C22U G52U G60C	-4.56

Variant	polymerase ribozyme fitness (log ratio)
U9A C56G	-0.125
U9A U78C U96A C124U	1.26
U9A C12U A37G G61A	0.106
C8U U14G G17A A119G	-0.996
U9A C31G A83C G107C	-1.45
C8U C31U C53U	-4.36
U9A A16G G93A G117A	-0.214
C8U G127C	-1.53
C8U C73U G120A	1.89
C8G G47U G57A C73A C85G U106A U133A	-4.51
C8U C70U	-0.398
C8U C70G	-1.58
C8U C70A	-1.06
U9A C99A	-6.7
C8U G71A C115U	-1.94
C8U C64A U78C C123U	-4.51
C8U U125A U130G	-0.351
C8U C56G C80A	-1.69
C8U C12A A84C U116C	0.149
U9A G35A	-3.25
U9C A103C C104A	-2.12

Variant	polymerase ribozyme fitness (log ratio)
C8U G44A C56A	-0.314
U9A C12A A16C A26U G47U	-5.44
U9A G39C C99U	-2.83
C8U C88U A121C	1.33
U9A C34A C72A C102U C123A G128U	-1.61
C8U G47C C62U	-1.51
U9C A43U	-0.741
C8U A18U C53U C79G G93C U130G	-4.48
C8G G71A C72A C102A	-3.77
U9A G63U	-0.179
C8U G39C	0.0547
U9C C80G	-5.3
C8U G10U C72U	-0.279
C8U G19C A43U C94A C115A G120U U133A	-2.68
U9A U55A C56A G63U	-5.03
U9A C70U	0.25
C8U C12A G19U U59C A75U G120A	-1.37
C8U G44A	-0.0714
C8G U32C A90C	-0.367
U9G C13A U59A C72A	-1.53
